Measured values taken from patent US20090163594A1, “Triple Assay System for Identifying Substrate Selectivity of Gamma Secretase Inhibitors” (ELAN PHARMACEUTICALS, INC., priority 2007, published 2009).
Blank lines part the entries; values can stand above or below the molecule they belong to.

Key:
[1] = target: T1, gamma secretase, APP γ and ε cleavage (Homo sapiens, UniProt P49768); assay: Aβ and AICD ELISA, Fas-APPsw-DD transfected 293 cells; type: cell-based
T1 construct: endogenous in cells; host or cells: 293 cells transfected with Fas-APPsw-DD
Method: (§1) ELISAs used to quantify different Aβ species were performed using standard techniques as described above and in (Johnson-Wood, K., et al., Proc. Natl. Acad. Sci. U.S.A., 1997; 94: 1550-1555, incorporated by reference). The Aβ40 and Aβ42 peptides in the samples were captured onto 2G3 or 21F12 antibody coated plates, respectively, and detected with a biotinylated 2H3 antibody. The fluorescence signal generated from a streptavidin-alkaline phosphatase conjugate (Roche) was measured with a CytoFlour microplate reader (Applied Biosystems). Synthetic Aβ40 or Aβ42 peptides (Anaspec) were used to generate standard curves (FIG. 10). All measurements were done in triplicate.
An AICD sandwich ELISA was established based on capture of cell lysates with any of the AICD polyclonal or monoclonal antibodies discussed above, and reporting back with antibody directed at the extreme C-terminus of APP (e.g., 13G8, prepared in-house). Alternatively, luciferase-based reporter assays can be used to detect and quantify the presence of AICD and correlate those numbers to inhibitory potency of known or potential gamma secretase inhibitor compounds.
Polyclonal antibody AICD ELISA. HEK 293 cells were grown under standard conditions to ˜90% confluence. Cells were harvested, counted, and subsequently plated onto PDL-coated 60 mm dishes at 2×10^6 cells/dish in 5 mL media. […]

[2] = target: T2, gamma secretase, AICD-GVP generated from C99-GVP (Homo sapiens, UniProt P49768); assay: Luciferase reporter gene assay, HEK293 cells transfected with C99GVP; type: cell-based; conditions: dose-dependent, FIG. 5C
T2 construct: endogenous in cells
Method: Inhibitor Treatment of Transfected HEK Cell: The transition state analogue gamma secretase inhibitor-L685,458 (Sigma) and the peptidomimetic inhibitor-DAPT (Dovey, H. F., et al., J Neurochem., 2001; 76:173-181) were dissolved in DMSO to make 20 mM stocks. Similarly, a number of Elan's series of sulfonamide inhibitors were prepared and used as described herein (see, also FIGS. 11-14). Inhibitors were added to cell cultures (e.g., HEK) at the indicated final concentration, and the treated cells were harvested 48 h post-transfection. The metallo-proteinase inhibitor TAPI-1 (Calbiochem) was used at a final concentration of 40 μM. The Aβ-degrading enzyme inhibitors, Bacitracin (Calbiochem) and phosphoramidon (Calbiochem) were used at final concentration of 1 mg/ml and 40 μM, respectively. […]
Luciferase Reporter Gene Assay: Luciferase reporter assays were carried out 48 hr post-transfection. […] After adding 100 μl of luminescent substrate (Promega), the luciferase activity was measured with a MicroLumatPlus microplate luminometer (Berthold Technologies). The P-galactosidase activity was measured similarly, using a luminescent β-galactosidase substrate (BD Biosciences). […]
Luciferase Assay. […] Some residual luciferase activity remained in the presence of excess gamma secretase inhibitors, even though identical treatment completely abolished AICD production as measured by Western blot (FIG. 5B).

[3] = target: T3, gamma secretase, gamma cleavage (secreted Aβ) (Homo sapiens, UniProt P49768); assay: Aβ ELISA and IP/Western blot of conditioned media, HEK cells transfected with C99GVP constructs; type: cell-based; parameters: secreted Aβ42: unit not given here; conditions: for secreted Aβ (Ab40, Ab42, total): 5 μM, 24 h, C99GVP transfectants, FIG. 5D; for Aβ-lowering potency with C99GVP compared with native substrate APP: FIG. 5E; for effect on secreted Aβ / Aβ production: words; for drop of Aβ40: Aβ40 ELISA, FIG. 9C; for reduction in total Aβ: IP/Western blot, FIG. 9B
T3 construct: endogenous in cells; host or cells: HEK 293, transiently transfected with substrate plasmids
Method: AICD neo-epitope antibodies were raised against the peptide VMLKKKC (SEQ ID NO:39). […] (FIGS. 15 and 16). P Cell Culture and Transient Transfection: Human embryonic kidney 293 (HEK 293) cells (ATCC) were grown in Dulbecco's Modified Eagle Medium with High Glucose (DMEM, obtained from Gibco/Invitrogen, Cat #11960) supplemented with 10% fetal bovine serum (Hyclone, SV 30014.03) and 50 units/ml penicillin and streptomycin (37° C., 5% CO2). Cells were used at less than passage number 30. At the time of seeding, viability of cells was greater than 95% as determined using a Vi-Cell Analyzer (Beckman-Coulter). Confluence of cells on plates was kept at greater than 95% during all phases of the experiment as determined with a standard tissue culture inverted microscope. All transfections were carried out on 5×10^6 cells in 6-well tissue culture plates (Costar). […] FuGENE6 reagent (Roche Cat. #11-814443001) was used according to manufacturer's protocol for the transient transfection of adherent cells. Transfected cells were reseeded onto 12 well (2×10^6 cells) and/or 96-well (5×10^4 cells) plates (Costar) 16 h post-transfection; fresh media was added either with or without gamma secretase inhibitors. The cells and conditioned media were harvested 48 h post-transfection for analysis.
Inhibitor Treatment of Transfected HEK Cell: The transition state analogue gamma secretase inhibitor-L685,458 (Sigma) and the peptidomimetic inhibitor-DAPT (Dovey, H. F., et al., J Neurochem., 2001; 76:173-181) were dissolved in DMSO to make 20 mM stocks. Similarly, a number of Elan's series of sulfonamide inhibitors were prepared and used as described herein (see, also FIGS. 11-14). Inhibitors were added to cell cultures (e.g., HEK) at the indicated final concentration, and the treated cells were harvested 48 h post-transfection. The metallo-proteinase inhibitor TAPI-1 (Calbiochem) was used at a final concentration of 40 μM. The Aβ-degrading enzyme inhibitors, Bacitracin (Calbiochem) and phosphoramidon (Calbiochem) were used at final concentration of 1 mg/ml and 40 μM, respectively. All inhibitor experiments were performed in triplicate and repeated at least three times.
Immunoprecipitation (IP) and Western Blot Detection of Aβ: Total Aβ peptides in conditioned medium or cell lysate were immuno-precipitated at 4° C. overnight with 4 μg of the 2H3 antibody, followed by incubation with 50 μl of a 50% protein G-Sepharose (GE Healthcare) slurry for 1 hr and three washes in the same lysis buffer as described above in the Western Blot discussion. Proteins were eluted from the solid-phase immunoprecipitates in Laemmli sample buffer by heating at 70° C. for 5 min and resolved on 10-20% Tris-Tricine SDS-PAGE or the modified Tris-Tricine/8M urea gels (Qi-Takahara, Y., et al., J Neurosci. (2005; 25, 436-445). After transferring onto nitrocellulose membranes (Invitrogen), the membranes were heated to 98° C. for 5 min in PBS, immunostained with the 2H3 antibody and visualized with Super-signal West Pico chemiluminescent substrate (Pierce). Each experiment was repeated at least three times.
as §1

[4] = tested on: AICD-GVP nuclear staining in COS-7 cells; assay: Immunostaining of transfected COS-7 cells; type: cell-based; conditions: DAPT 5 μM, FIG. 5F
Method: Immunostaining: Wild type or transiently transfected COS-7 cells (ATCC) were fixed at room temperature with 2% paraformaldehyde in PBS for 20 min and subsequently permeabilized with 0.2% Triton X-100 in PBS for 10 min. […] All staining was visualized on a Bio-Rad MRC 1024ES confocal microscope (Bio-Rad) and captured with a coupled CCD camera.

[5] = transient expression in HEK cells, ELISA

- γ/ε selectivity = IC50 AICD/IC50 Aβ [1]: 0.7
- secreted Aβ (Ab40, Ab42, total) [3]: block secreted Aβ
- Aβ-lowering potency with C99GVP compared with native substrate APP ([3]; ELISA): equal Ab potency
Molecule: C[C@H](NC(=O)Cc1cc(F)cc(F)c1)C(=O)N[C@H](C(=O)OC(C)(C)C)c1ccccc1 [DAPT]
- luciferase reporter transactivation by AICD-GVP [2]: block luciferase reporter transactivation
- nuclear staining of AICD-GVP [4]: abolished

- γ/ε selectivity = IC50 AICD/IC50 Aβ [1]: 1.9
- secreted Aβ (Ab40, Ab42, total) [3]: block secreted Aβ
- Aβ-lowering potency with C99GVP compared with native substrate APP ([3]; ELISA): equal Ab potency
Molecule: CC(C)C[C@H](NC(=O)[C@H](Cc1ccccc1)C[C@@H](O)[C@H](Cc1ccccc1)NC(=O)OC(C)(C)C)C(=O)N[C@@H](Cc1ccccc1)C(N)=O [L-685,458, reference compound]
- luciferase reporter transactivation by AICD-GVP [2]: block luciferase reporter transactivation

- Aβ42 fraction of the total Aβ ([3]; transient expression in HEK cells): 15.7±2.5%
- secreted Aβ40 [3, 5]: 210.8 ± 19.2 pM
- secreted Aβ42 [3, 5]: 39.1±6.4
Molecule: C99GVP: 99 amino acid C-terminal fragment of APP with Gal4-VP16 domain inserted (SEQ ID NO:47)

- effect on secreted Aβ / Aβ production ([3]; versus C99GVP control): no obvious effect
Molecule: G25S: C99GVP point mutant in the GSNK motif (SEQ ID NO:43) (LEDAEFRHDSGYEVHHQKLVFFAEDVSSNKGAIIGLMVGGVVIATVIVITLVML)

- drop of Aβ40 ([3]; versus C99GVP control): ~90%
- reduction in total Aβ ([3]; versus C99GVP control): ~90%
Molecule: K28S: C99GVP point mutant in the GSNK motif (SEQ ID NO:46) (LEDAEFRHDSGYEVHHQKLVFFAEDVGSNSGAIIGLMVGGVVIATVIVITLVML)

- effect on secreted Aβ / Aβ production ([3]; versus C99GVP control): no obvious effect
Molecule: N27S: C99GVP point mutant in the GSNK motif (SEQ ID NO:45) (LEDAEFRHDSGYEVHHQKLVFFAEDVGSSKGAIIGLMVGGVVIATVIVITLVML)

- drop of Aβ40 ([3]; versus C99GVP control): 52.7±2.3%
- reduction in total Aβ ([3]; versus C99GVP control): 65.7±8.5%
Molecule: S26L: C99GVP point mutant in the GSNK motif (SEQ ID NO:44) (LEDAEFRHDSGYEVHHQKLVFFAEDVGLNKGAIIGLMVGGVVIATVIVITLVML)

Molecule: gamma secretase
- secreted Aβ (C99GVP-G25S): showed no obvious effect on secreted Aβ
- decrease in total Aβ and in Aβ40 (C99GVP-K28S): an even more substantial (˜90%) decrease in both measurements
- secreted Aβ (C99GVP-N27S): showed no obvious effect on secreted Aβ
- drop of Aβ40 (C99GVP-S26L): 52.7±2.3% drop of Aβ40
- reduction in total Aβ (C99GVP-S26L): 65.7±8.5% reduction in total Aβ
- reduction in secreted Aβ (C99GVP-SLSS): marked reduction (˜97%) in secreted Aβ
- Aβ secretion (western blot and Aβ40 ELISA of conditioned media) (C99GVP-SREBP1-gsnk): also maintained normal Aβ secretion

- reduction in secreted Aβ ([3]; versus C99GVP control, FIG. 9B and 9C): ~97%
B1: C99GVP-SLSS: C99GVP in which the GSNK motif is substituted with SLSS from APLP2 (SEQ ID NO:51) (protein)
chain: DAEFRHDSGYEVHHQKLVFFAEDVSLSSGAIIGLMVGGVVIATVIVITLVMLKKKKLLSSIEQACDICRLKKLKCSKEKPKCAKCLKNNWECRYSPKTKRSPLTRAHLTEVESRLERLEQLFLLIFPREDLDMILKMDSLQDIKALLTGLFVQDNVNKDAVTDRLASVETDMPLTLRQHRISATSSSEESSNKGQRQLTVSGIPGDLAPPTDVSLGDELHLDGEDVAMAHADALDDFDLDMLGDGDSPGPGFTPHDSAPYGALDMADFEFEQMFTDALGIDEYGGQYTSIHHGVVEVDAAVTPEERHLSKMQQNGYENPTYKFFEQMQN
